Laboratory results from publication PMC7114298.

Biological target: MERS-CoV PLpro-[change] (wild type) (MERS-CoV) (UniProt K9N7C7)

Work on “Ub-AMC (from UniProt P0CG48 1-76) (natural protein)” yielded a Km of Ub-AMC hydrolysis (steady-state kinetics, 25 °C) of 16.6 µM.
